The record followed here is patent publication US20060234906A1, “Structure of a complex of retinoblastoma protein bound to e2f, and uses thereof” (priority 2002, published 2006).

For experiment [1], the target named is T1, RbABC (Homo sapiens, UniProt P06400).
T1 construct: His6-RbABC (RESIDUES 380-929); made in house; host or cells: E. coli
T1 sequence (P06400 380-928 limits assumed): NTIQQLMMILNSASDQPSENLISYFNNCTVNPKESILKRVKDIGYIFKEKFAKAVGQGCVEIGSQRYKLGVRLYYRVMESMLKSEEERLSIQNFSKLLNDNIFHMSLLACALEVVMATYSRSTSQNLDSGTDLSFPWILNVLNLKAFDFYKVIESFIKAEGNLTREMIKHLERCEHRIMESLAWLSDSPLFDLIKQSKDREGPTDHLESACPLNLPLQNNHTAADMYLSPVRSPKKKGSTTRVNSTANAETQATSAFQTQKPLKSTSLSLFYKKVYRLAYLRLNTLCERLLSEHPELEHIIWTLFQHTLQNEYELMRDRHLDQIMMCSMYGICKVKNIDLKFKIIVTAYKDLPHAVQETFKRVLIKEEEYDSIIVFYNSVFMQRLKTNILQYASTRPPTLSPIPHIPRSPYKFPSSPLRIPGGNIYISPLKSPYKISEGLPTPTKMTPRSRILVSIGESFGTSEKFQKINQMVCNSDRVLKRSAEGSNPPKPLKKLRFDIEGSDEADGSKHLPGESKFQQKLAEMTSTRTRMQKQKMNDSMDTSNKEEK
Kind of experiment: Isothermal titration calorimetry of E2F constructs binding to RbABC. As to conditions: ITC. The protocol:
(B) Summary of dissociation constants obtained by ITC measurements. The quoted errors are those produced by fitting the data to a two-state model. For the interaction of E2F(243-437) to RbAB and RbABC the affinities are too high to measure reliably and we have therefore quoted the upper limits of the dissociation constants.
Binding of the various E2F constructs to RbAB and RbABC was measured by isothermal titration calorimetry using a MicroCal Omega VP-ITC machine (MicroCal Inc., Northampton, USA). The E2F constructs at a concentration between 100-150 μM were titrated into 12-15 μM Rb at a temperature of 22° C. Proteins were dialysed against 50 mM Tris pH 7.6, 100 mM NaCl and 1 mM TCEP. After subtraction of the dilution heats, calorimetric data was analysed using the evaluation software MicroCal Origin v5.0 (MicroCal Software Inc.). For all of the titrations, the stoichiometry of ligand binding to Rb was very close to 1.0. For E2F(243-437) binding to Rb, the binding affinity and the heat change associated with binding were such that we could only establish that binding was tighter than 10 nM.

The target of experiment [2] is T2, RbABC (Homo sapiens, UniProt P06400).
T2 construct: His6-RbABC (RESIDUES 380-929); made in house; host or cells: E. coli
T2 sequence (P06400 whole entry, looked up): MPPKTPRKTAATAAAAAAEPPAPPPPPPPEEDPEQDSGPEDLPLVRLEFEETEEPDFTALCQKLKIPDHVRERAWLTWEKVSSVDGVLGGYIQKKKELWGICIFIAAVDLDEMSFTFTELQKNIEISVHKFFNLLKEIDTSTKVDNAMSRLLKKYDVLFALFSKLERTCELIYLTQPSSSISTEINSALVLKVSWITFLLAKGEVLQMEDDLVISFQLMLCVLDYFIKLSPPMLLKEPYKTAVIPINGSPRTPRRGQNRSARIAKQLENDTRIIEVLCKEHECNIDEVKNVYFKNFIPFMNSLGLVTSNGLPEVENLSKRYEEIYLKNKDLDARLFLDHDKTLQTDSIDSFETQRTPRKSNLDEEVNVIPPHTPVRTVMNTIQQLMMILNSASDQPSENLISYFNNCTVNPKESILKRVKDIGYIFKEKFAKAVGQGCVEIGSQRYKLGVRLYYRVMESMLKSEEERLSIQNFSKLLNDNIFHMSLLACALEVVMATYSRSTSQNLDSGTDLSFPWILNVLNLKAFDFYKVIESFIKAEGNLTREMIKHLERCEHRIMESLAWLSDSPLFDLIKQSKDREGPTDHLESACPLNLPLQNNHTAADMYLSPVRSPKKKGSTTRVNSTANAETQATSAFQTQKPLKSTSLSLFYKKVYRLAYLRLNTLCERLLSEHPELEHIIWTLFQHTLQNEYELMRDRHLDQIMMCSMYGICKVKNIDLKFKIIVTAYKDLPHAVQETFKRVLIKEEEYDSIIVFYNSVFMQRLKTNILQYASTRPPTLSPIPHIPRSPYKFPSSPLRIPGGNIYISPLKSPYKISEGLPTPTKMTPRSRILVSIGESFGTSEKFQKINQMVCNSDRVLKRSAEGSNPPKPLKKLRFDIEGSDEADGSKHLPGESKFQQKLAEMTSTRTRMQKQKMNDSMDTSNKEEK
As to the kind of experiment: RbABC. The source says:
(§1) Table printed on a drawing sheet, FIG. 2B
(§2) The patent's description of the figure: FIG. 2.
(§3) First copying reader's note: Binding constants of E2F fragments to the Rb constructs RbAB and RbABC; the error is printed in the same cell as the value.
Where the first naming reader finds the target: head: RbABC

The next experiment deals with T3, RbAB (Homo sapiens, UniProt P06400).
T3 construct: residues 372 to 589 of the A domain and 636 to 787 of the B domain; GST (with Prescission protease site) (N, cleaved yes); engineered thrombin site (LVPRGS) at the A-domain end of the A-B linker (C, cleaved yes); engineered thrombin site (LVPRGS) at the B-domain end of the A-B linker (N, cleaved yes); made in house; host or cells: E. coli
T3 sequence (P06400 whole entry, looked up): T2 sequence (P06400 whole entry, looked up)
Kind of experiment: RbAB.
Text: as §1, §2, §3
Where the first naming reader finds the target: head: RbAB

B1: E2F(243-437): Recombinant human E2F1(243-437) expressed in E. coli (protein, UniProt Q01094 243-437, looked up, fragment)
chain: LAYVTCQDLRSIADPAEQMVMVIKAPPETQLQAVDSSENFQISLKSKQGPIDVFLCPEETVGGISPGKTPSQEVTSEEENRATDSATIVSPPPSSPPSSLTTDPSQSLLSLEQEPLLSRMGSLRAPVDEDRLSPLVAADSLLEHVREDFSGLLPEEFISLSPPHEALDYHFGLEEGEGIRDLFDCDFGDLTPLDF
With B1, in the experiment with RbABC [1], the “binds stronger than either of the two shorter E2F fragments” value is “at least 16 fold”. Also, the Kd in the experiment with RbABC [2] and with RbAB was below 10 nM each time.

For orientation: Kd means the equilibrium constant for the complex coming apart. The low end stands for tighter binding, the high end for weaker binding.
